Experimental data from doi:10.1101/2021.02.18.431788.

Target: Neurofibromin (NF1), full length, isoform 1 (human) (UniProt P21359)
Experiment: AUC

In the case of “Neurofibromin (NF1), full length, isoform 1, P21359-2 1-2818”, the stoichiometry N is reported as 2.
